The chains are these.
B1: KLHL20 (parent)
chain: YQDMIYAVGGRDDTTELSSAERYN
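Note: lentivirally expressed fusions sorted by FACS into six bins by GFP to DsRed ratio, PSI derived from sequencing read proportions per bin multiplied by bin number.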

Variants of B1 are the subject of this series. Description: protein stability index of a GFP-peptide fusion (GPS, HEK-293T) (PSI 1-6); higher = more stable. The following applies: c terminus: a fixed tail appended.
In the case of YQDMIYAVGPRDDTTELSSAERYN [G10P], the protein stability index stood at 2.44.

On to YQDMIYAVCGRDDTTELSSAERYN [G9C], for which the protein stability index was 2.23.

For YQDMIYAVAGRDDTTELSSAERYN [G9A], the protein stability index was found to be 1.94.

In the case of YQDMIYAVWGRDDTTELSSAERYN [G9W], the protein stability index is 1.92.

For YQDMIYAVQGRDDTTELSSAERYN [G9Q], the protein stability index stood at 2.27.

As for YQDMIYAVMGRDDTTELSSAERYN [G9M], the protein stability index worked out at 2.17.

With YQDMIYAVRGRDDTTELSSAERYN [G9R], the protein stability index was found to be 2.36.

Consider YQDMIYAVEGRDDTTELSSAERYN [G9E], for which the protein stability index worked out at 2.53.

On to YQDMIYAVHGRDDTTELSSAERYN [G9H], for which the protein stability index amounted to 1.94.

As to YQDMIYAVLGRDDTTELSSAERYN [G9L], the protein stability index worked out at 2.01.

With YQDMIYAVTGRDDTTELSSAERYN [G9T], the protein stability index is 2.4.

Take YQDMIYAVPGRDDTTELSSAERYN [G9P]: the protein stability index is 2.32.

Take YQDMIYAVNGRDDTTELSSAERYN [G9N]: the protein stability index was determined as 1.95.

YQDMIYAVVGRDDTTELSSAERYN [G9V]: the protein stability index was 2.02.

Consider YQDMIYAVSGRDDTTELSSAERYN [G9S], for which the protein stability index stood at 1.85.

YQDMIYAVDGRDDTTELSSAERYN [G9D]: the protein stability index worked out at 2.88.

YQDMIYAVKGRDDTTELSSAERYN [G9K]: the protein stability index came out at 2.07.

For YQDMIYAVFGRDDTTELSSAERYN [G9F], the protein stability index was 2.15.

With YQDMIYAVIGRDDTTELSSAERYN [G9I], the protein stability index was 1.51.

YQDMIYAVYGRDDTTELSSAERYN [G9Y]: the protein stability index is 1.32.

On to WQDMIYAVGGRDDTTELSSAERYN [Y1W], for which the protein stability index was 2.85.

Turning to TQDMIYAVGGRDDTTELSSAERYN [Y1T], the protein stability index is 4.58.

As to KQDMIYAVGGRDDTTELSSAERYN [Y1K], the protein stability index was 4.39.

Consider EQDMIYAVGGRDDTTELSSAERYN [Y1E], for which the protein stability index is 5.08.

VQDMIYAVGGRDDTTELSSAERYN [Y1V]: the protein stability index was determined as 4.5.

With LQDMIYAVGGRDDTTELSSAERYN [Y1L], the protein stability index was 4.26.

Take NQDMIYAVGGRDDTTELSSAERYN [Y1N]: the protein stability index turned out to be 4.96.

QQDMIYAVGGRDDTTELSSAERYN [Y1Q]: the protein stability index amounted to 4.75.

For the variant HQDMIYAVGGRDDTTELSSAERYN [Y1H], the protein stability index was determined as 4.5.

Take IQDMIYAVGGRDDTTELSSAERYN [Y1I]: the protein stability index came to 4.05.

On to PQDMIYAVGGRDDTTELSSAERYN [Y1P], for which the protein stability index worked out at 4.57.

Turning to FQDMIYAVGGRDDTTELSSAERYN [Y1F], the protein stability index came to 1.89.

Consider GQDMIYAVGGRDDTTELSSAERYN [Y1G], for which the protein stability index was found to be 4.66.

As to DQDMIYAVGGRDDTTELSSAERYN [Y1D], the protein stability index worked out at 5.33.

RQDMIYAVGGRDDTTELSSAERYN [Y1R]: the protein stability index is 4.89.

With SQDMIYAVGGRDDTTELSSAERYN [Y1S], the protein stability index was found to be 4.89.

For the variant MQDMIYAVGGRDDTTELSSAERYN [Y1M], the protein stability index is 4.1.

On to YWDMIYAVGGRDDTTELSSAERYN [Q2W], for which the protein stability index was determined as 2.87.

Regarding YKDMIYAVGGRDDTTELSSAERYN [Q2K], the protein stability index came to 4.2.

With YPDMIYAVGGRDDTTELSSAERYN [Q2P], the protein stability index was determined as 3.58.

With YTDMIYAVGGRDDTTELSSAERYN [Q2T], the protein stability index amounted to 2.22.

Regarding YFDMIYAVGGRDDTTELSSAERYN [Q2F], the protein stability index came out at 2.79.

In the case of YHDMIYAVGGRDDTTELSSAERYN [Q2H], the protein stability index amounted to 2.83.

With YADMIYAVGGRDDTTELSSAERYN [Q2A], the protein stability index stood at 2.3.

As to YNDMIYAVGGRDDTTELSSAERYN [Q2N], the protein stability index is 4.27.

Regarding YIDMIYAVGGRDDTTELSSAERYN [Q2I], the protein stability index came out at 1.58.

Turning to YGDMIYAVGGRDDTTELSSAERYN [Q2G], the protein stability index stood at 3.28.

On to YCDMIYAVGGRDDTTELSSAERYN [Q2C], for which the protein stability index was determined as 2.02.

As for YVDMIYAVGGRDDTTELSSAERYN [Q2V], the protein stability index is 1.96.

With YRDMIYAVGGRDDTTELSSAERYN [Q2R], the protein stability index is 3.6.

As to YYDMIYAVGGRDDTTELSSAERYN [Q2Y], the protein stability index is 3.17.

For the variant YSDMIYAVGGRDDTTELSSAERYN [Q2S], the protein stability index stood at 3.61.

As for YMDMIYAVGGRDDTTELSSAERYN [Q2M], the protein stability index was 3.03.

For YLDMIYAVGGRDDTTELSSAERYN [Q2L], the protein stability index is 2.85.

As to YEDMIYAVGGRDDTTELSSAERYN [Q2E], the protein stability index came to 5.02.

For YDDMIYAVGGRDDTTELSSAERYN [Q2D], the protein stability index was determined as 4.86.

With YQDMCYAVGGRDDTTELSSAERYN [I5C], the protein stability index came out at 2.52.

For YQDMHYAVGGRDDTTELSSAERYN [I5H], the protein stability index was determined as 2.65.

On to YQDMYYAVGGRDDTTELSSAERYN [I5Y], for which the protein stability index was found to be 2.21.

As to YQDMWYAVGGRDDTTELSSAERYN [I5W], the protein stability index worked out at 2.48.

Consider YQDMFYAVGGRDDTTELSSAERYN [I5F], for which the protein stability index was 1.79.

Consider YQDMSYAVGGRDDTTELSSAERYN [I5S], for which the protein stability index was 3.53.

With YQDMQYAVGGRDDTTELSSAERYN [I5Q], the protein stability index was found to be 4.11.

As to YQDMRYAVGGRDDTTELSSAERYN [I5R], the protein stability index amounted to 2.71.

Take YQDMDYAVGGRDDTTELSSAERYN [I5D]: the protein stability index amounted to 3.99.

For the variant YQDMKYAVGGRDDTTELSSAERYN [I5K], the protein stability index came out at 3.39.

In the case of YQDMLYAVGGRDDTTELSSAERYN [I5L], the protein stability index is 2.61.

For YQDMNYAVGGRDDTTELSSAERYN [I5N], the protein stability index is 3.09.

On to YQDMTYAVGGRDDTTELSSAERYN [I5T], for which the protein stability index amounted to 3.17.

YQDMGYAVGGRDDTTELSSAERYN [I5G]: the protein stability index was found to be 3.14.

For YQDMPYAVGGRDDTTELSSAERYN [I5P], the protein stability index was determined as 2.72.

With YQDMAYAVGGRDDTTELSSAERYN [I5A], the protein stability index was 2.28.

Take YQDMEYAVGGRDDTTELSSAERYN [I5E]: the protein stability index stood at 3.98.

Consider YQDMMYAVGGRDDTTELSSAERYN [I5M], for which the protein stability index was found to be 2.77.

Regarding YQDMVYAVGGRDDTTELSSAERYN [I5V], the protein stability index came to 2.53.

Turning to YQDMIYVVGGRDDTTELSSAERYN [A7V], the protein stability index was found to be 2.16.

For the variant YQDMIYIVGGRDDTTELSSAERYN [A7I], the protein stability index was 1.8.

For YQDMIYLVGGRDDTTELSSAERYN [A7L], the protein stability index was determined as 2.01.

As to YQDMIYEVGGRDDTTELSSAERYN [A7E], the protein stability index worked out at 3.56.

As to YQDMIYPVGGRDDTTELSSAERYN [A7P], the protein stability index came to 3.07.

For the variant YQDMIYQVGGRDDTTELSSAERYN [A7Q], the protein stability index worked out at 2.29.

On to YQDMIYNVGGRDDTTELSSAERYN [A7N], for which the protein stability index turned out to be 2.92.

Turning to YQDMIYKVGGRDDTTELSSAERYN [A7K], the protein stability index came to 2.12.

Take YQDMIYGVGGRDDTTELSSAERYN [A7G]: the protein stability index was 3.01.

For YQDMIYRVGGRDDTTELSSAERYN [A7R], the protein stability index was found to be 1.76.

Consider YQDMIYTVGGRDDTTELSSAERYN [A7T], for which the protein stability index came out at 2.27.

Regarding YQDMIYDVGGRDDTTELSSAERYN [A7D], the protein stability index stood at 3.34.

As to YQDMIYCVGGRDDTTELSSAERYN [A7C], the protein stability index was 2.17.

Turning to YQDMIYSVGGRDDTTELSSAERYN [A7S], the protein stability index turned out to be 2.55.

For YQDMIYFVGGRDDTTELSSAERYN [A7F], the protein stability index worked out at 1.69.

YQDMIYMVGGRDDTTELSSAERYN [A7M]: the protein stability index was found to be 1.96.

Turning to YQDMIYHVGGRDDTTELSSAERYN [A7H], the protein stability index is 2.42.

Take YQDMIYWVGGRDDTTELSSAERYN [A7W]: the protein stability index is 2.92.

In the case of YQDMIYYVGGRDDTTELSSAERYN [A7Y], the protein stability index stood at 2.27.

These data come from the supplement of paper PMC10567573.
